One series relates to O=[N+]([O-])c1ncc[nH]1. Kind of series: nitrite release, Griess reaction, Michaelis-Menten plot. The format is biochemical, Mycobacterium sp. JS330. The note with it: 25-400 µM 2NI, 25 °C, no metal or cofactor. The text has this:
nitrite release, Griess reaction, Michaelis-Menten plot on NnhA

Series [1] concerns the molecule itself. Kind of series: crystal structure; crystals in space groups P1 (6 molecules in the asymmetric unit) and H32 (one protomer, hexamer by crystallographic symmetry); grown in polyacrylic acid 5100, MgCl2, HEPES pH 7.2, or PEG 3350 with sodium malonate pH 7.0; data at 100 K.
Series [2] concerns the molecule itself. Kind of series: SEC; Superdex 200 prep column during purification, 20 mM Tris pH 7.5, 50 mM NaCl; molecular weight estimate assumes a globular complex.
The mark [3] stands for this setting: 1.1 µM enzyme, soluble variant from directed evolution.

Changes are numbered by the printed parent chain. Names may count otherwise.

Consider “NnhA (Mycobacterium sp. JS330; G14D/K73R/T2I)”, for which, in the series with O=[N+]([O-])c1ncc[nH]1 (setting [3]), the Km is 109.8 ± 7.6 µM, the kcat turned out to be 0.3 ± 0.007 s⁻¹ and the kcat/Km is 2730 M⁻¹ s⁻¹.

For the molecule NnhA (Mycobacterium sp. JS330), in the series on O=[N+]([O-])c1ncc[nH]1 (1.1 µM enzyme), the Km came to 93.1 ± 14.1 µM, the kcat worked out at 0.0212 ± 0.00267 s⁻¹ and the kcat/Km was 200 M⁻¹ s⁻¹.

“NnhA (Mycobacterium sp. JS330; C352A/G14D/K73R/T2I)”: in the series with O=[N+]([O-])c1ncc[nH]1 (3.3 µM enzyme), the Km was 24.5 ± 3.3 µM, the turnover number (kcat) amounted to 0.0122 ± 0.000333 s⁻¹ and the kcat/Km was found to be 500 M⁻¹ s⁻¹.

B1: soluble NnhA (2-nitroimidazole nitrohydrolase A, T2I-G14D-K73R variant) (enzyme)
chain: MITVDKRPSSRGYDDWRLSDIPQYKDGISTYEFVRATHEADYRTHQAEPVAGRTFGFNGIGRLTEVALHMPTRYTLHDQSSQYKESPSFFQGLMGVPDRGPVDLAAFQRETEELATAFENNGIKVHWVDYPEEPANPYGPLMGHVFLSWGSIWRGGSVISRFGFLPGMVGVSEYLAKWAWNTLNIPPLVAITEGAMEPGACNMIADEVLVTCLSASYDQRGTDQLVAAISKTSGTEEFHNLQLRPAVEGFFNKATGACAHPDININAIDVGKLVVSPAALDWDARTWLYDNNFELIEADPDEQREFLAPCNVLLLEPGKVIAHADCHKTNQKIRDAGVEVIEVTGTEIRKACGGIKCRVMQINREPGPTLADVRNRVWR
notes: 2-nitroimidazole nitrohydrolase A (NnhA) of Mycobacterium sp; JS330, UniProt F4ZCI3.1; electron density from R11 to R379 at the C-terminus; Variant found by four rounds of directed evolution (error-prone PCR); also called NnhA-T2I-G14D-K73R; soluble T2I, G14D, K73R NnhA mutant; source: no nickel column; not shown: His6, N-terminal, kept
Turning to B1, the “stoichiometry N” value in series [1] is 6; in series [2], around 4.

B2: NnhA-T2I-G14D-K73R-C357A (enzyme)
chain: B1 chain with C357A
notes: 2-nitroimidazole nitrohydrolase A (NnhA) of Mycobacterium sp; JS330, UniProt F4ZCI3.1; also called NnhA C357A; source: no nickel column
For B2, the “stoichiometry N” value in series [1] was 6.

The values above are taken from paper PMC11659421, “Structural insights into the enzymatic breakdown of azomycin-derived antibiotics by 2-nitroimdazole hydrolase (NnhA)” (Communications Biology, 2024).
